The values below come from paper doi:10.1101/226712.

The target in this assay is ClpXP (ClpX6P14) with Cy3-labeled ClpPQ48C, immobilized through biotinylated ClpX6 (Escherichia coli) (UniProt P0A6H1). The experiment in a line: single-molecule TIRF fluorescence with alternating laser excitation.

For the substance “Titin-I27 V13P with the C-terminal ssrA tag, Cy5-labeled at Cys (domain or fragment)”, the total dwell time (Δτ, bound and processed) is 7.3 s. As for “Titin-I27 wild-type with the C-terminal ssrA tag, Cy5-labeled at Cys (domain or fragment)”, the figure is 7.5 s.
